Results as given in publication PMC10808114, “Yeast 26S proteasome nuclear import is coupled to nucleus-specific degradation of the karyopherin adaptor protein Sts1” (Scientific Reports, 2024).

B2: Srp1-6His (natural protein, S. cerevisiae, UniProt Q02821 1-542, looked up)
chain: MDNGTDSSTSKFVPEYRRTNFKNKGRFSADELRRRRDTQQVELRKAKRDEALAKRRNFIPPTDGADSDEEDESSVSADQQFYSQLQQELPQMTQQLNSDDMQEQLSATVKFRQILSREHRPPIDVVIQAGVVPRLVEFMRENQPEMLQLEAAWALTNIASGTSAQTKVVVDADAVPLFIQLLYTGSVEVKEQAIWALGNVAGDSTDYRDYVLQCNAMEPILGLFNSNKPSLIRTATWTLSNLCRGKKPQPDWSVVSQALPTLAKLIYSMDTETLVDACWAISYLSDGPQEAIQAVIDVRIPKRLVELLSHESTLVQTPALRAVGNIVTGNDLQTQVVINAGVLPALRLLLSSPKENIKKEACWTISNITAGNTEQIQAVIDANLIPPLVKLLEVAEYKTKKEACWAISNASSGGLQRPDIIRYLVSQGCIKPLCDLLEIADNRIIEVTLDALENILKMGEADKEARGLNINENADFIEKAGGMEKIFNCQQNENDKIYEKAYKIIETYFGEEEDAVDETMAPQNAGNTFGFGSNVNQQFNFN
notes: Srp1 (Kap60, karyopherin-alpha), S. cerevisiae; pET42b-based plasmid; also called karyopherin-α; Kap60; source: also co-expressed with GST-Sts1 in E. coli extract; not shown: 6His, C-terminal, kept

What was measured:
GST-cleaved Kap95 = biological target: T1, GST-cleaved Kap95 (S. cerevisiae, UniProt Q06142 1-861); assay: pull-down; GST-Sts1 immobilised on GSH beads, incubated with equimolar Srp1-6His and GST-cleaved Kap95, 4 °C, 2 h; PBS, 0.1% Tween-20, 0.2 mM DTT, 0.2 mM PMSF; without Ran or then with four-fold molar excess of 6His-Gsp1GDP (complex largely intact); SDS-PAGE and protein staining; details: both partners purified
T1 construct: Kap95 (karyopherin-beta), S. cerevisiae; also called purified Kap95; untagged Kap95; source: recombinant, purified, GST cleaved
T1 sequence (looked up): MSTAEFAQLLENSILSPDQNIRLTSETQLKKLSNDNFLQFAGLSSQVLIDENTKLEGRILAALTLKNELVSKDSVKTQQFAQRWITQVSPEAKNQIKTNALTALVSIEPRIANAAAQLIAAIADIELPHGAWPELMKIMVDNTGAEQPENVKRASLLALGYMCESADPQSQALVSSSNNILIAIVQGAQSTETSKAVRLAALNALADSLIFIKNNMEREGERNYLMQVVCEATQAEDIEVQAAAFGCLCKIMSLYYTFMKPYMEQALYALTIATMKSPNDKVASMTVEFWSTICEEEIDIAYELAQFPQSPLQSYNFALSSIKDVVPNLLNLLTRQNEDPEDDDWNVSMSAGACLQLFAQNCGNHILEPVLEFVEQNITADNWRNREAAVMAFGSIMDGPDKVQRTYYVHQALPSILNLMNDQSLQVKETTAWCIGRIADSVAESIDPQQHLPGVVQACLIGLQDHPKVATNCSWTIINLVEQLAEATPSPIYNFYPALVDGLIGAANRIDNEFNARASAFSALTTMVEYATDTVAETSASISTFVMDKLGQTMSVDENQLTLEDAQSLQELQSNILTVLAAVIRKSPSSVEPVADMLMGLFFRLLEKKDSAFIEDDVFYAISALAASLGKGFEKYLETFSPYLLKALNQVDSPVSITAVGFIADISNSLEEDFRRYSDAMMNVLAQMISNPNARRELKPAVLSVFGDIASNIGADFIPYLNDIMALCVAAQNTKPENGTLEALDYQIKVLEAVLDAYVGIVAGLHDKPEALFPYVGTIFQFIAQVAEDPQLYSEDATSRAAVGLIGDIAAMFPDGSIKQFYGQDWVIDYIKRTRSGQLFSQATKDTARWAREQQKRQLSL

Srp1-6His = biological target: B2; assay: as above; details: both partners purified

B1: full-length GST-Sts1 (natural protein, S. cerevisiae, UniProt P38637 1-319, looked up)
chain: MMGFEWGFKPSSKITQSTVSSQGTGNVMIPTAGVKQKRRYANEEQEEEELPRNKNVMKYGGVSKRRPQPGSLIRGQPLPLQRGMELMNKNQLQQLLVDLMTKHPEIQQSVHTRVIGLDFSIQKCLDMLKQKSEAVYQSIPYNRSYESNKLDDYAFVRMKPQILEFLNCLVDFILDNIPPRLENLHASLKFLDICTELVIKLPRFELASNNYYYDKCIEQLSHVWCTLIEHVARDRIILLADNSSVWKSHMTRLQVYNEHSNGLLERPLQLFKSLDMGSPSAASSSTLSLQESIIYHHDTMTANENNNNSGSAATDSPFN
notes: Sts1, S. cerevisiae, full length; also called FL; not shown: GST, N-terminal, kept
binding result (GST-cleaved Kap95): binds
binding result (Srp1-6His): binds

B2
binding result (GST-cleaved Kap95): binds
